In this experiment the target is recombinant full-length mouse cGAS (mouse, UniProt Q8C6L5 1-507). Kind of experiment: co-IP.
Chain of recombinant full-length mouse cGAS (Q8C6L5 whole entry): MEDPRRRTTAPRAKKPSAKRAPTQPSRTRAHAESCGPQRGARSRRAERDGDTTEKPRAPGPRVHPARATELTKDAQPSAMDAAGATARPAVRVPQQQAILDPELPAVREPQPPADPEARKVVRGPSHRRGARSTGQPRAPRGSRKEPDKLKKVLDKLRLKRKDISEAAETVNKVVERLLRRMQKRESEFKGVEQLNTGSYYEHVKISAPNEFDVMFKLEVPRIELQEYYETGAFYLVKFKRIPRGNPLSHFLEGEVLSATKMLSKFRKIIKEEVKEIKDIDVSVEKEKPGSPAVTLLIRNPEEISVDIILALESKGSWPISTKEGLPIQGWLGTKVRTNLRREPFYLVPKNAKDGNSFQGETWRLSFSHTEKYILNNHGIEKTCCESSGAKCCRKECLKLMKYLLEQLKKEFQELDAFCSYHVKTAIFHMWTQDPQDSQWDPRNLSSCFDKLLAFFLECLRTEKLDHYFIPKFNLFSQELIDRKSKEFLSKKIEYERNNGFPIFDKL

B1: recombinant full-length mouse ZBP1 (natural protein, UniProt Q9QY24 1-411, looked up)
chain: MAEAPVDLSTGDNLEQKILQVLSDDGGPVKIGQLVKKCQVPKKTLNQVLYRLKKEDRVSSPEPATWSIGGAASGDGAPAIPENSSAQPSLDERILRFLEANGPHRALHIAKALGMTTAKEVNPLLYSMRNKHLLSYDGQTWKIYHSRQEGQDIAHSGVTQESPAIICQHNPVNMICQQGANSHISIANSNAIQIGHGNVIVREKACGEPGPRTSHPLPLAWDASAQDMPPVAHGAQYIYMDKSLLQQVQLGHHNEMSLVGDAGKHPSYSFSDSPPEVSTTTADPGASFNMQTFEPGPHPEGDTVQTVHIKSCFLEDATIGNGNKMTIHLRSKGEVMESGDSEEPKKEDTGTSSEATPPRSCQHTPSDSMLPTSELRAMALGDSSPQTTEPVLREHEVQDIESSQDTGLSKQ
Turning to B1, the binding result is reported as “binds”.

The record behind these values is article PMC10330843 (Cell, 2023).
